The text below walks through data of patent US20230192860A1 (Bristol-Myers Squibb, published 2023).

By Kd is commonly meant the free concentration of one partner at which half of the binding sites on the other are occupied at equilibrium, for simple one-to-one binding. A lower Kd goes with higher affinity. One may read the koff as the first-order rate constant of dissociation. A lower koff goes with a long-lived complex. For orientation: kon means the second-order rate constant of association.

Substitutions are numbered along the chain they refer to. Names and notes keep the numbering of the source. Where only a bound is given, the exact number is not on record here.

The chains are these.
B1: P1-077875 (P1-068748 H31S H32Y) (antibody, V domains shown)
VH: QVQLVESGGGVVQPGRSLRLSCAASGFTFSSYAMHWVRQAPGKGLEWVAIIWYDGSNDDYADSVKGRFTISRDNSKNTLYLQMNSLRAEDTAVYYCARDSGFYDSYYFDYWGQGTLVTVSS
VL: EIVLTQSPATLSLSPGERATLSCRASQSVSSSYLAWYQQKPGQAPRLLIYDASNRATGIPARFSGSGSGTDFTLTISSLEPEDFATYYCQQYNSYPYTFGQGTKLEIK
B2: P1-077867 (P1-068748 H32Y) (antibody, V domains shown)
VH: B1 VH with S31H
VL: B1 VL
B3: P1-077865 (P1-068748 H31S) (antibody, V domains shown)
VH: B1 VH with Y32H
VL: B1 VL
B4: P1-061015 (antibody, human IgG1, kappa, V domains shown)
VH: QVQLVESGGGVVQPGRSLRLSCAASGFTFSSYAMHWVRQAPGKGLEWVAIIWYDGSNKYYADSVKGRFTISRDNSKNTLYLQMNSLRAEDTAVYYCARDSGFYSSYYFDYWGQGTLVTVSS
VL: EIVLTQSPATLSLSPGERATLSCRASQSVSSSYLAWYQQKPGQAPRLLIYDASNRATGIPARFSGSGSGTDFTLTISSLEPEDFATYYCQQYNSYPYTFGQGTKLEIKR
notes: also called P1-061015.IgG1.3
B5: P1-068744 (antibody, human IgG1, kappa, V domains shown)
VH: B1 VH with S31E, I50H, D58K, D59Y, Y60E, D104E, Y110E
VL: B4 VL
notes: also called P1-068744-7
B6: P1-061520 (41F11 VK_A64G) (antibody, V domains shown)
VH: QVQLVESGGGLVKPGGSLRLSCAASGFTFSDYYMSWIRQAPGKGLEWVSYISNSGSPIYYADSVKGRFTISRDNAKNSLYLQMNSLRAEDTAVYYCARDLPGWYFDLWGRGTLVTVSS
VL: EIVLTQSPATLSLSPGERATLSCRASQSVSSYLAWYQQKPGQAPRLLIYDASNRATGIPARFSGSGSGTDFTLTISSLEPEDFAVYYCQQRNNWPRTFGQGTKVEIK
notes: also called P1-061520-21; VISTA.4.A64G
B7: P1-070976 (41F11_VH_T28P_Y50W_S55E_D95H_L96E_P97E_Y100E; Vk_A64G) (antibody, V domains shown)
VH: B6 VH with T28P, Y50W, S56E, D99H, L100E, P101E, Y104E
VL: B6 VL
notes: They look like Kabat positions on the mature VH, but no numbering scheme is stated; also called P1-070976-11
B8: P1-068748 (antibody, human IgG1, kappa, V domains shown)
VH: B1 VH with S31H, Y32H
VL: B4 VL
notes: also called P1-068748-6
B9: P1-070914 (P1-068767_E30D_D52N) (antibody, human IgG1, kappa, V domains shown)
VH: EVQLVESGGGLVQPGKSLRLSCAASGFTLDDYAMHWVRQAPGKGLEWVSGINWNSENIGYADSVKGRFTISRDNAKNSLYLQMNSLRTEDTALYYCAKVPGYSGGWIDAEDDWGQGTMVTVSS
VL: not shown
notes: also called P1-070914-3
B10: P1-070916 (P1-068767_D52N_E55A) (antibody, human IgG1, kappa, V domains shown)
VH: B9 VH with D30E, E56A
VL: not shown
notes: also called P1-070916-6
B11: P1-070922 (P1-068767_E30D_E55A) (antibody, human IgG1, kappa, V domains shown)
VH: B9 VH with N52D, E56A
VL: not shown
notes: also called P1-070922-3

The target in the first assay is T1, monovalent hVISTA-ECD (amino acids 32-193 of SEQ ID NO: 1 with a 7xHis tail) (human, UniProt Q9H7M9 33-193).
T1 construct: analyte of the SPR assays; also called huVISTA-His; human VISTA-ECD
T1 sequence (Q9H7M9 other isoform, or with tags, fused parts or gaps limits assumed): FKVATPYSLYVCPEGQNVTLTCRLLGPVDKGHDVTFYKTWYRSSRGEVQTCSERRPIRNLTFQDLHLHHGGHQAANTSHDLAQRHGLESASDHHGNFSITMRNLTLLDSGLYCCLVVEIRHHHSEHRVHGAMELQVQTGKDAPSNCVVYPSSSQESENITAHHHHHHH
In words: SPR 37C, Ab on Protein A, pH 6.0.
Consider B1, for which the “fold improvement of off-rate against the '748 antibody” value (from here on “fold improvement of off-rate”) is at most 2 fold.

On to B2, for which the “fold improvement of off-rate” value was at most 2 fold.

For the molecule B3, the “fold improvement of off-rate” value is at most 2 fold.

For the next assay, the target named is T2, hVISTA-ECD 6-His tag (human, UniProt Q9H7M9 33-193).
T2 construct: also called monovalent hVISTA-ECD; human VISTA
T2 sequence (Q9H7M9 other isoform, or with tags, fused parts or gaps limits assumed): as above
Description: SPR 37 C, Ab on Protein A, pH 6.0.
B4 yielded a Kd of 1.9 nM, a koff of 0.0016 s⁻¹ and a kon of 830000 M⁻¹ s⁻¹.

In the case of B5, the affinity, expressed as Kd, was 20 nM; the koff is 0.0046 s⁻¹; the on-rate (kon) came out at 230000 M⁻¹ s⁻¹.

A further assay concerns the target T2, hVISTA-ECD 6-His tag. Description: SPR 37 C, Ab on Protein A, pH 7.4.
Turning to B4, the Kd was 6.4 nM, the off-rate constant (koff) is 0.0022 s⁻¹ and the kon came to 340000 M⁻¹ s⁻¹.

As for B5, the Kd was determined as 1100 nM, the koff came to 0.036 s⁻¹ and the kon was determined as 35000 M⁻¹ s⁻¹.

Another assay concerns the target T2, hVISTA-ECD 6-His tag. In words: SPR, Ab on Protein A, hVISTA analyte, pH 6.9. In outline: (§1)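 Antibodies at 50 nM in PBST pH 7.4 were captured on a Protein A CM5 chip; an 8-point human VISTA titration (100 to 7.8 nM) in PBST at pH 7.4, 6.9, 6.45 or 6.0 was injected for 180 seconds at 30 µL/min. Kinetic constants came from 1:1 binding fits of sensorgrams.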
Molecule B6 returned a Kd of 2.15 nM, a koff of 0.00139 s⁻¹ and a kon of 646000 M⁻¹ s⁻¹.

For B7, the Kd was 970 nM, the koff came to 0.01 s⁻¹ and the kon turned out to be 11000 M⁻¹ s⁻¹.

Regarding B4, the Kd was 3.19 nM, the koff is 0.00133 s⁻¹ and the kon stood at 417000 M⁻¹ s⁻¹.

Molecule B8 registered a Kd of 220 nM, a koff of 0.018 s⁻¹ and a kon of 82000 M⁻¹ s⁻¹.

In turn, B5 yielded a Kd of 4800 nM, a dissociation rate constant (koff) of 0.034 s⁻¹ and a kon of 7100 M⁻¹ s⁻¹.

B9: the Kd stood at 230 nM, the koff is 0.011 s⁻¹ and the kon turned out to be 48000 M⁻¹ s⁻¹.

The molecule B10 yielded a Kd of 230 nM, a koff of 0.0093 s⁻¹ and a kon of 41000 M⁻¹ s⁻¹.

In the case of B11, the Kd was found to be 790 nM, the koff was 0.014 s⁻¹ and the kon came to 18000 M⁻¹ s⁻¹.

A further assay has as its target T2, hVISTA-ECD 6-His tag. Description: SPR, Ab on Protein A, hVISTA analyte, pH 6.0.
Regarding B6, binding was put at a Kd of 16.8 nM, the koff came to 0.0323 s⁻¹ and the kon is 1.93e+06 M⁻¹ s⁻¹.

B7 yielded a Kd of 9.9 nM, a koff of 0.0023 s⁻¹ and a kon of 240000 M⁻¹ s⁻¹.

B4: binding was characterised by a dissociation constant (Kd) of 0.622 nM, the koff was 0.00154 s⁻¹ and the kon is 2.47e+06 M⁻¹ s⁻¹.

Take B8: the Kd is 4.3 nM, the koff came out at 0.0036 s⁻¹ and the kon worked out at 840000 M⁻¹ s⁻¹.

For the molecule B5, binding was put at a Kd of 5.1 nM, the koff worked out at 0.0043 s⁻¹ and the kon came out at 860000 M⁻¹ s⁻¹.

B9 registered a Kd of 11 nM, a koff of 0.0024 s⁻¹ and a kon of 230000 M⁻¹ s⁻¹.

B10 had a Kd of 6.5 nM, a koff of 0.0019 s⁻¹ and a kon of 300000 M⁻¹ s⁻¹.

As for B11, the affinity, expressed as Kd, was 17 nM; the dissociation rate constant (koff) was 0.004 s⁻¹; the kon turned out to be 230000 M⁻¹ s⁻¹.

In another assay the target is T2, hVISTA-ECD 6-His tag. Description: SPR, Ab on Protein A, hVISTA analyte, pH 6.45. In general terms: Surface plasmon resonance follows binding to a sensor surface in real time, without labels.
The molecule B6 displayed a Kd of 5.69 nM, a koff of 0.00554 s⁻¹ and a kon of 975000 M⁻¹ s⁻¹.

For the molecule B7, binding was put at a Kd of 44 nM, the koff is 0.0039 s⁻¹ and the kon is 90000 M⁻¹ s⁻¹.

B4 showed a Kd of 1.83 nM, a koff of 0.00147 s⁻¹ and an on-rate constant (kon) of 803000 M⁻¹ s⁻¹.

The molecule B8 registered a dissociation constant Kd of 18 nM, a koff of 0.012 s⁻¹ and an association rate constant (kon) of 680000 M⁻¹ s⁻¹.

B5 came in with a Kd of 64 nM, a koff of 0.014 s⁻¹ and a kon of 220000 M⁻¹ s⁻¹.

B9 gave a Kd of 46 nM, a koff of 0.0049 s⁻¹ and a kon of 110000 M⁻¹ s⁻¹.

Consider B10, for which binding was characterised by a dissociation constant (Kd) of 35 nM, the koff was 0.004 s⁻¹ and the kon was determined as 120000 M⁻¹ s⁻¹.

Molecule B11 gave a Kd of 76 nM, a koff of 0.007 s⁻¹ and an on-rate constant (kon) of 93000 M⁻¹ s⁻¹.

For a further assay, the target named is T2, hVISTA-ECD 6-His tag. In words: SPR; KD at pH 6.9 over KD at pH 6.0 (head prints 7.4). How it is done: (§2) Further binding kinetic experiments were performed at various pHs on VISTA antibodies described herein by SPR as generally described in Example 9 above. Antibodies were normalized to 50 nM concentration in PBST pH 7.4 and captured on a Protein A CM5 chip (ID 4931) by injecting for 45 seconds at a 5 µL/min flow rate. An 8-point human VISTA titration ([…]) was prepared in PBST at pH 7.4, 6.9, 6.45, and 6.0. Titrations were injected over the captured antibodies for 180 seconds at 30 µL/min. Sensorgrams were fit to a 1:1 binding model in T200 evaluation software and the kinetic constants were reported.
(§3) Each table reports the data at one of the four tested pHs (7.4, 6.9, 6.45, and 6.0, respectively). The 8-point hVISTA titration used in these assays was chosen to provide increased confidence in kinetic values reported at neutral pH conditions. A relatively stringent cutoff for non-binding was applied in this assay. Certain progeny of P1-061029 antibody (P1-068757, ‘759, ‘765, ‘771, and ‘775) show no binding to hVISTA at micromolar concentrations at pH 7.4, while ‘761 and ‘767 show no binding to hVISTA at 100 nM at pH 7.4 but do show binding to hVISTA at micromolar concentrations.
B6: the “7.4 KD/ 6.0 KD” value amounted to 0.1.

With B7, the “7.4 KD/ 6.0 KD” value was determined as 98.2.

Regarding B4, the “7.4 KD/ 6.0 KD” value was found to be 5.1.

On to B8, for which the “7.4 KD/ 6.0 KD” value worked out at 50.

For the molecule B5, the “7.4 KD/ 6.0 KD” value was determined as 958.

With B9, the “7.4 KD/ 6.0 KD” value came to 21.1.

Take B10: the “7.4 KD/ 6.0 KD” value was 35.1.

Turning to B11, the “7.4 KD/ 6.0 KD” value was 45.9.

A further assay deals with T2, hVISTA-ECD 6-His tag. In words: SPR; kd at pH 6.9 over kd at pH 6.0 (head prints 7.4). How it is done: as §2, §3
Consider B6, for which the “7.4 kd/ 6.0 kd” value was found to be 0.

B7: the “7.4 kd/ 6.0 kd” value stood at 4.4.

For the molecule B4, the “7.4 kd/ 6.0 kd” value was 0.9.

Turning to B8, the “7.4 kd/ 6.0 kd” value is 4.8.

With B5, the “7.4 kd/ 6.0 kd” value turned out to be 7.9.

For the molecule B9, the “7.4 kd/ 6.0 kd” value came to 4.4.

For the molecule B10, the “7.4 kd/ 6.0 kd” value amounted to 4.8.

On to B11, for which the “7.4 kd/ 6.0 kd” value is 3.4.

The next assay deals with T2, hVISTA-ECD 6-His tag. Description: SPR; KD at pH 6.45 over KD at pH 6.0 (head prints 7.4).
For the molecule B6, the “7.4 KD/ 6.0 KD” value was determined as 0.3.

B7: the “7.4 KD/ 6.0 KD” value stood at 4.4.

Consider B4, for which the “7.4 KD/ 6.0 KD” value was 2.9.

Regarding B8, the “7.4 KD/ 6.0 KD” value was 4.1.

With B5, the “7.4 KD/ 6.0 KD” value stood at 12.6.

Regarding B9, the “7.4 KD/ 6.0 KD” value worked out at 4.3.

For the molecule B10, the “7.4 KD/ 6.0 KD” value came to 5.4.

In the case of B11, the “7.4 KD/ 6.0 KD” value worked out at 4.4.

The target in a further assay is T2, hVISTA-ECD 6-His tag. In words: SPR; kd at pH 6.45 over kd at pH 6.0 (head prints 7.4). In outline:
as §1
Regarding B6, the “7.4 kd/ 6.0 kd” value is 0.2.

Consider B7, for which the “7.4 kd/ 6.0 kd” value amounted to 1.7.

Turning to B4, the “7.4 kd/ 6.0 kd” value turned out to be 1.

As to B8, the “7.4 kd/ 6.0 kd” value turned out to be 3.4.

As to B5, the “7.4 kd/ 6.0 kd” value is 3.2.

For B9, the “7.4 kd/ 6.0 kd” value was found to be 2.

On to B10, for which the “7.4 kd/ 6.0 kd” value is 2.1.

On to B11, for which the “7.4 kd/ 6.0 kd” value worked out at 1.7.
